According to PMC7367201, “G-quadruplexes offer a conserved structural motif for NONO recruitment to NEAT1 architectural lncRNA”:

How the values were obtained:
NONO(53-312) [1] = molecular target: T1, NONO(53-312) (UniProt Q15233 53-312); assay: competition; vs labelled NEAT1_22619 G4, 1-200x excess; no significant competition; NONO(53-312) EMSA: 20 mM HEPES pH 7.5, 5.7 mM Tris-HCl, 113 mM KCl, 10% glycerol, 62 mM L-proline, 1% EMPIGEN BB, 0.12 mM EDTA, 4 C 1 h, 10 nM RNA; full-length: 20 mM HEPES pH 7.4, 11 mM Tris, 105 mM KCl, 14% glycerol, 40 mM glycine, 0.2 mM EDTA, 0.5 mM DTT, 0.5% BSA, 25 C; pulldown: 10 mM HEPES pH 7.0, 200 mM KCl, 1% Triton X-100, 1 …; settings: protein: recombinant; tags: His tag removed by TEV; chain copies: 2; label: none; annealed with 100 mM KCl
T1 sequence: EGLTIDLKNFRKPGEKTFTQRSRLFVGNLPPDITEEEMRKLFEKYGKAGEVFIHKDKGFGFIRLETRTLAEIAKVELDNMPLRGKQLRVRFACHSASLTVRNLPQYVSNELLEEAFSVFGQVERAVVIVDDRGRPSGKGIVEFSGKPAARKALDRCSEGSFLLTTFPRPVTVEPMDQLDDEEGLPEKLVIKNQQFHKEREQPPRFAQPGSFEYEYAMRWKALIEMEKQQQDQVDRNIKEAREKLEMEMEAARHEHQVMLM

NONO(53-312) [2] = molecular target: T1, NONO(53-312); assay: EMSA; annealed with 100 mM KCl; NONO(53-312) EMSA: 20 mM HEPES pH 7.5, 5.7 mM Tris-HCl, 113 mM KCl, 10% glycerol, 62 mM L-proline, 1% EMPIGEN BB, 0.12 mM EDTA, 4 C 1 h, 10 nM RNA; full-length: 20 mM HEPES pH 7.4, 11 mM Tris, 105 mM KCl, 14% glycerol, 40 mM glycine, 0.2 mM EDTA, 0.5 mM DTT, 0.5% BSA, 25 C; pulldown: 10 mM HEPES pH 7.0, 200 mM KCl, 1% Triton X-100, 1 mM MgCl2, 1 mM DTT, 4 C, washes to 1.6 M KCl; settings: protein: recombinant; tags: His tag removed by TEV; chain copies: 2; label: 3' Cy5; intramolecular G4, annealed with 100 mM KCl
NONO(53-312) [3] = molecular target: T1, NONO(53-312); assay: competition; vs labelled NEAT1_22619 G4, 1-200x excess; NONO(53-312) EMSA: 20 mM HEPES pH 7.5, 5.7 mM Tris-HCl, 113 mM KCl, 10% glycerol, 62 mM L-proline, 1% EMPIGEN BB, 0.12 mM EDTA, 4 C 1 h, 10 nM RNA; full-length: 20 mM HEPES pH 7.4, 11 mM Tris, 105 mM KCl, 14% glycerol, 40 mM glycine, 0.2 mM EDTA, 0.5 mM DTT, 0.5% BSA, 25 C; pulldown: 10 mM HEPES pH 7.0, 200 mM KCl, 1% Triton X-100, 1 mM MgCl2, 1 mM DTT, 4 C, …; settings: protein: recombinant; tags: His tag removed by TEV; chain copies: 2; label: none; intramolecular G4
NONO full-length = molecular target: T2, NONO full-length (UniProt Q15233 1-471); assay: EMSA; annealed with 100 mM KCl; complex retained in wells; NONO(53-312) EMSA: 20 mM HEPES pH 7.5, 5.7 mM Tris-HCl, 113 mM KCl, 10% glycerol, 62 mM L-proline, 1% EMPIGEN BB, 0.12 mM EDTA, 4 C 1 h, 10 nM RNA; full-length: 20 mM HEPES pH 7.4, 11 mM Tris, 105 mM KCl, 14% glycerol, 40 mM glycine, 0.2 mM EDTA, 0.5 mM DTT, 0.5% BSA, 25 C; pulldown: 10 mM HEPES pH 7.0, 200 mM KCl, 1% Triton X-100, 1 mM MgCl2, 1 mM DTT, 4 C, …; settings: protein: commercial; tags: MYC/DDK; chain copies: 2; label: 3' Cy5; intramolecular G4, annealed with 100 mM KCl
T2 sequence: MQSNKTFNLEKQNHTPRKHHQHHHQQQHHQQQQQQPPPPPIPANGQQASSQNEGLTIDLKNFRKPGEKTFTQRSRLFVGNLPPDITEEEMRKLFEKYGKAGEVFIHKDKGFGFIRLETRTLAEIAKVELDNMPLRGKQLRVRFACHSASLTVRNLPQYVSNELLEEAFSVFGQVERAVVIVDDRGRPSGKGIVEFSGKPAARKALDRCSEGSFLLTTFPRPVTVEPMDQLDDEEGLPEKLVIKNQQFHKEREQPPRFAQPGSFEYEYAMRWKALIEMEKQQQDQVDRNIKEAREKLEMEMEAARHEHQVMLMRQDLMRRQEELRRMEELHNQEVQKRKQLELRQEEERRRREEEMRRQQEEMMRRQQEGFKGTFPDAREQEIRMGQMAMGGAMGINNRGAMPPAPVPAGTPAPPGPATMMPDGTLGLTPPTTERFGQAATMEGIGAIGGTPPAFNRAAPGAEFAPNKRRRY

AAAAAGGUAAG (ssRNA) [5'-Splice Site RNA]
binding result (NONO(53-312) [1]): no binding

GGGGCCGGGGCCGGGGCCGGGGCC (structured_RNA) [(GGGGCC)4 G-quadruplex]
binding result (NONO(53-312) [2]): binds

GGGAGGGAGGGAGGG (structured_RNA) [NEAT1_22619 G-quadruplex competitor]
binding result (NONO(53-312) [3]): binds

GGGGCCGGGGCCGGGGCCGGGGCC (structured_RNA) [(GGGGCC)4 G-quadruplex competitor]
binding result (NONO(53-312) [3]): binds

GGGAGGGAGGGAGGG (structured_RNA) [NEAT1_22619 G-quadruplex]
binding result (NONO full-length): binds | binding result (NONO(53-312) [2]): binds
